# In article PMC6222663, “Biochemical Characterization of the Rice Cinnamyl Alcohol Dehydrogenase Gene Family” (Molecules : A Journal of Synthetic Chemistry and Natural …, 2018):
# B1: OsCAD6 (Oryza sativa Japonica Group) (protein)
# chain: MEVTPNHTQTVSGWAAMDESGKIVPFVFKRRENGVDDVTIKVKYCGMCHTDLHFIHNDWGITMYPVVPGHEITGVVTKVGTNVAGFKVGDRVGVGCIAASCLDCEHCRRSEENYCDKVALTYNGIFWDGSITYGGYSGMLVAHKRFVVRIPDTLPLDAAAPLLCAGITVYSPMKQHGMLQADAAGRRLGVVGLGGLGHVAVKFGKAFGLHVTVISTSPAKEREARENLKADNFVVSTDQKQMQAMTRSLDYIIDTVAATHSLGPILELLKVNGKLVLVGAPEKPVELPSFPLIFGKRTVSGSMTGGMKETQEMMDICGEHNITCDIEIVSTDRINDALARLARNDVRYRFVINVGGDSKL
# B2: OsCAD2 (Oryza sativa Japonica Group) (protein)
# chain: MGSLAAEKTVTGWAARDASGHLTPYNYTLRKTGPEDVVVKVLYCGICHTDIHQAKNHLGASKYPMVPGHEVVGEVVEVGPEVTKYSAGDVVGVGVIVGCCRECHPCKANVEQYCNKRIWSYNDVYTDGRPTQGGFASAMVVDQKFVVKIPAGLAPEQAAPLLCAGLTVYSPLKHFGLMSPGLRGGVLGLGGVGHMGVKVAKSMGHHVTVISSSARKRGEAMDDLGADAYLVSSDAAAMAAAGDSLDYIIDTVPVHHPLEPYLALLKLDGKLILMGVINQPLSFISPMVMLGRKAITGSFIGSMAETEEVLNFCVDKGLTSQIEVVKMDYVNQALERLERNDVRYRFVVDVAGSNIDDADAPPA
# B3: OsCAD7 (Oryza sativa Japonica Group) (protein)
# chain: MAPTTTATAAAEQAPPPQHTRKAVGLAAHDDSGHLTPIRISRRKTGDDDVAIKVLYCGICHSDLHTIKNEWRNAVYPVVAGHEITGVVTEVGKNVARFKAGDEVGVGCMVNTCGGCESCRDGCENYCSGGVVFTYNSVDRDGTRTYGGYSDAVVVSQRFVVRFPSSAGGGAGAALPLDSGAPLLCAGVTVYAPMRQHGLCEAGKHVGVVGLGGLGHVAVKFARAFGMRVTVISTSPVKRQEALERLGADGFIVSTNASEMKAAMGTMHGIINTASASTSMHSYLALLKPKGKMILVGLPEKPLQIPTFALVGGGKILAGSCMGSISETQEMIDFAAEHGVAADIELIGADEVNTAMERLAKGDVRYRFVVDIGNTLRSD
# Tests used:
# Assay in all cases: NADPH consumption at A340, Lineweaver-Burk
# Assay type in all cases: biochemical, Oryza sativa
# Conditions in all cases: 300 μM NADPH, 100 mM sodium/potassium phosphate pH 6.25, 30 °C, substrate 5–50 μM
# [1] = substrate: COc1cc(/C=C/C=O)cc(OC)c1O
# From the text: (§1) NADPH consumption at A340, Lineweaver-Burk on OsCAD6
# [2] = substrate: COc1cc(/C=C/C=O)ccc1O
# From the text: as §1
# [3] = substrate: O=C/C=C/c1ccc(O)cc1
# From the text: as §1
# [4] = substrate: O=CC=Cc1ccccc1
# From the text: as §1
# [5] = substrate: COc1cc(/C=C/C=O)cc(OC)c1O; remark: listed apart in the source
# From the text: (§2) NADPH consumption at A340, Lineweaver-Burk on OsCAD2
# [6] = substrate: COc1cc(/C=C/C=O)ccc1O; remark: listed apart in the source
# From the text: as §2
# [7] = substrate: O=C/C=C/c1ccc(O)cc1; remark: listed apart in the source
# From the text: as §2
# [8] = substrate: O=CC=Cc1ccccc1; remark: listed apart in the source
# From the text: as §2
# [9] = substrate: COc1cc(/C=C/C=O)cc(OC)c1O; remark: listed apart in the source
# From the text: (§3) NADPH consumption at A340, Lineweaver-Burk on OsCAD7
# [10] = substrate: COc1cc(/C=C/C=O)ccc1O; remark: listed apart in the source
# From the text: as §3
# [11] = substrate: O=C/C=C/c1ccc(O)cc1; remark: listed apart in the source
# From the text: as §3
# [12] = substrate: O=CC=Cc1ccccc1; remark: listed apart in the source
# From the text: as §3
protein,measurement,setting,value
B1,Km,[1],10.72 ± 0.47 µM
same,Vmax,[1],0.103 µmol/min/mg
same,kcat,[1],0.0733 s⁻¹
same,kcat/Km,[1],6830 M⁻¹ s⁻¹
same,Km,[2],16.18 ± 4.49 µM
same,Vmax,[2],0.217 µmol/min/mg
same,kcat,[2],0.154 s⁻¹
same,kcat/Km,[2],9670 M⁻¹ s⁻¹
same,Km,[3],10.88 ± 4.29 µM
same,Vmax,[3],0.11 µmol/min/mg
same,kcat,[3],0.0757 s⁻¹
same,kcat/Km,[3],7500 M⁻¹ s⁻¹
same,Km,[4],28.25 ± 11.36 µM
same,Vmax,[4],0.439 µmol/min/mg
same,kcat,[4],0.311 s⁻¹
same,kcat/Km,[4],11500 M⁻¹ s⁻¹
B2,Km,[5],8.19 ± 2.62 µM
same,Vmax,[5],52.9 µmol/min/mg
same,kcat,[5],41.2 s⁻¹
same,kcat/Km,[5],5.35e+06 M⁻¹ s⁻¹
same,Km,[6],4.37 ± 0.85 µM
same,Vmax,[6],38.7 µmol/min/mg
same,kcat,[6],30.1 s⁻¹
same,kcat/Km,[6],7.15e+06 M⁻¹ s⁻¹
same,Km,[7],9.36 ± 2.50 µM
same,Vmax,[7],17.8 µmol/min/mg
same,kcat,[7],13.9 s⁻¹
same,kcat/Km,[7],1.54e+06 M⁻¹ s⁻¹
same,Km,[8],5.30 ± 3.42 µM
same,Vmax,[8],11.6 µmol/min/mg
same,kcat,[8],9.05 s⁻¹
same,kcat/Km,[8],2.37e+06 M⁻¹ s⁻¹
B3,Km,[9],6.42 ± 1.77 µM
same,Vmax,[9],0.17 µmol/min/mg
same,kcat,[9],0.128 s⁻¹
same,kcat/Km,[9],21200 M⁻¹ s⁻¹
same,Km,[10],11.44 ± 2.16 µM
same,Vmax,[10],0.38 µmol/min/mg
same,kcat,[10],0.285 s⁻¹
same,kcat/Km,[10],25300 M⁻¹ s⁻¹
same,Km,[11],2.66 ± 0.49 µM
same,Vmax,[11],0.09 µmol/min/mg
same,kcat,[11],0.0692 s⁻¹
same,kcat/Km,[11],26300 M⁻¹ s⁻¹
same,Km,[12],14.11 ± 4.00 µM
same,Vmax,[12],0.25 µmol/min/mg
same,kcat,[12],0.188 s⁻¹
same,kcat/Km,[12],13700 M⁻¹ s⁻¹
